# Laboratory results published in PMC7591262.
# Target: Wtf4^antidote-mCherry (S. kambucha)
# Experiment: FRET or BRET
substance,measurement,value
Wtf4^poison-GFP (natural protein),FRET (acceptor photobleaching),40%
